In the nanobody polyreactivity screen of Harvey et al. (2022):

Test: yeast display, Sf9 membrane polyspecificity reagent, FACS + sequencing; frameworks hold sequencing errors
Method in brief: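 Polyreactivity labels are assigned by the sorting gate from which each nanobody was recovered. The gates were low and high (top ~1%), set on anti-HA fluorescence for expression and streptavidin fluorescence for reagent binding. Before sorting, galactose-induced (36–48 hours) yeast display cells were stained for 1 hour at 4 °C with 10% biotinylated, detergent-solubilized Sf9 membrane reagent.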

Row | Sequence | polyreactivity (PSR sort gate)
1 | QVQLQESGGVLVQAGGSLRLSCAARGYISLAQTIGWYRQAPGKEREFVASIALGSSTYYTDSEKGSFTISRDNAKTTVYLQMNSLKPEDTAVYYCAARVGASYAHDYWGQGTEVTVSS | low polyreactivity
2 | QVQLVESGGGLVQAGGSLRLSCAASGSIFLSNMGWYRQAPGKERELVAAISRNGGSTYYADSVKGRFTISRDNAKNTVYLQMNSLKPEDTAVYYCAVQRYWGQGTQVTVSS | high polyreactivity
3 | QVQLVESGGGLVQAGGSLRLSCAASGSIFGFNTMGWYRQAPGKERELVATINRSGGSTYYADSVKGRFTISRDNAKNTVYVQINSLKPEDTAVYYCAKDVWRHYMNLYDYWGQGTQVTVSS | low polyreactivity
4 | QVQLVESGVGLVQAGGSLRLSCAASGYTFRTNVMGWYRQAPGKERELVATINWRGGSTYYADSVKGRFTISRDNAKNTVYLQMNSLKPEDTAVYYCAADPGPYYDWGYDYWGQGTQVTVSS | low polyreactivity
5 | QVQLVESGGGLVQAGGSLRLSCAASGRTFKYYAMGWYRQAPGKERELVAGITYRDGRTYYADSVKGRFTISRDNAKNTVYLQMNSLKPEDTEVYYCAAERYSSPYWGMDYWGQGTQVTVSS | high polyreactivity
6 | QVQLVESGGGLVQAGGSLRLSCAASGRILRSNAMGWYRQAPGKERELVAAITSSGGSTRYADSVKGRFTISRDNAKNTVYLQMNSLKPEDTAVYYCAARYRQGFQAGHGYWGQGTQVTVSS | high polyreactivity
7 | QVQRVESGGGLVQAGGSLRLSCAATGFTSGDYAMGWYRQAPGKERELVAAIDSDGSTNYADSVKGRFTISRDNAKNTVYLQMNSLKPEDTADYYCNAKRYGFFYWQGDYWGQGTQVTVSS | low polyreactivity
8 | QVQLVESGGGLVQAGGSLRLSCAASGSIFLKYTMGRYRQAPGKERELVAAITSGGTTNYADSVKGRFTISRDNAKNTVYLQMNSLKPEDTAVYYCARDSYQLGLIRDPLEYDYWGQGTQETVSS | low polyreactivity
9 | QVQLVESGGGLVQAGGSLRLSCAASGGTFDWNTMGWYRQAPGKERELVASITSGGRTNYAASVKGRFTISRDNAMNPVYLQLNSLKPEDTAVYYCANYPRSAYPWQTWVGQKFDYWGQGTQVTVSS | low polyreactivity
10 | QVQLVESGGGLVQAGGSLRLSCAASGSTFPWYDMGWYRQAPGKERELVADISGGTRTYYADSVKGRFTISRDNAKNTVYLQMNSLKPEDTAVYYCAVGYYWNEPLYWYGDFDYWGQGTQVTVSS | high polyreactivity
11 | QVQLVESGGGLVQAGGSLRLSCAPSGRIFWYNAMGWYRQAPGKERELVAGISSSGTRTYYADSVKGRFTISRDNAKNTVYLQMNSLKPEDTAVYYCAAGYDLSYYWYDYWGQGTQVTVSS | low polyreactivity
12 | QVQLVESGGGLVQAGGSLRLSCAASGNLFYGYAMGWYRQAPGKERELVAAISGSSTYYADSVKGRFTISRDNAKYTVYLQMNSLKPEDTAVYYCAVPQYLYLQAGHGFRYYYWGQGTQVTVSS | high polyreactivity
13 | QVQLVESGGGLVQAGGSLRLSSAASGSIFSQNAMVWYTQAPGKERELVASISSGDSTTYADSVKGRFTISRDNAKNTVYLQMNSLKPEDTAVYYCNAYRYNALPWRYVGYDYWGQGTQVTVSS | low polyreactivity
14 | QVQLVESGGGLVQAGGSLRLSCAASGSTFVPYAMGWYRQAPGKERELVAGITFSGGSTYYADSVKGRFTIPRDNAKNTVYLQMNSLKPEDTAVYYCARAGGYPLSRYGYWGQGTQVTVSS | high polyreactivity
15 | QVQLVESGGGLVQAGGSLRLSCAASGIIFSIYTMGRYRQAPGKERELVAAINRSGSRTYYADSVKGRFTISRDNAKNTVYLQMNSLKPEDTAVYYCAAGTGSRDYYWGQGTQVTVSS | high polyreactivity
16 | QVQLVESGGGLVQAGGSLRLTCAASGSTFRWYAMGWYRQAPAKERELVAAIRSAGSTDYADSVKGRFTISRDNAKNTVYLQINSLKPEDTAVYYCAAYFRYRSSRYGYWGQGTQVTVSS | high polyreactivity
17 | QVQLVESGGGLVQAGGSLRLSCAASGRIFPYYAMGWYRQAPGKERELVAAISRSGGRTYYADSVKGRFTISRDNAKNTVYLQMNSLKPEDTAVYYCATPSKALPPHCRAILDYWGQGTQVTVSS | high polyreactivity
18 | QVQLVESGGGLVQSGGSLRLSCAASVRIFGPYVMGWYRQAPGKERELVAAISTSGTSTYDADSVKGRFTISRDNAKNTVYLQMNSLKPEDTAVYYCAKRSGALHRLMDYWGQGTQVTVSS | low polyreactivity
19 | QVHLVESGGGLVQAGGSLRLSCAASGRTFRKYAMGWYRQAPGKERELVAAISSSGGRTYYADSVKGRFTISRDNAKNTVYLQMNSLKPEDTAVYYCAAKQGNRNSYKYDYWGQGTQVTVSS | high polyreactivity
20 | QVQLVESGGGLVQAGGSLSLSCAASGRIFKSYAMGWYRQAPGKERELVAAIRSGGSTYYADSVKGRFTISRDNAKNTVYFQMNSLKPEDTAVYYCNRVTRTWKVTYHYWGQGTQVTVSS | high polyreactivity
21 | QVQLVESGGGLLQAGGSLRLSSAASGLTFAAYAMGWYRQAPGKEREFVAAITSSGGSTYYADSVKGRFTISRDNAKNSVYLQMNSLKPEDTAVYYCAAYYYDHYYWGQGTQVTVSS | high polyreactivity
22 | QVQHEESAGGLVQAGGSLRVSCAASGIIFYDYAMGWYRQAAGKERELVAAITSVGSTNYADSVKGRFTISRDYAKNTVYLQMISLKPDDTAVYYCDAEVYVPDYFQHIFDVEYEYWGQGTQVTVSS | low polyreactivity

Row | Sequence | polyreactivity (PSR sort gate)
23 | QVQLVESGGGLVQAGGSLRLTCDASGRIFVHNAMGWYRQAPGKERELVAAISWSGSSTYYADSVKGRFTISRDNAKNSVYLQMNSLKPEDTAVYYCLGQGTQVTVSS | low polyreactivity
24 | QVQLVESGGGLVQAGGSLRLSCAASGSIFAHYAMGGYRQAPGKERELVAAITRGGGTYYADSVKGRFTLSRDNAKNTVYLQMNSVKPEDTAVYYCARIYYVSIYRYDYWGQGTQVTVSS | high polyreactivity
25 | QVQLVESGGGLVQAGGSLRLSCPASGSILYYYTMGWYRQAPGKERELVAAITYSGGSSYYADSVKGRFTISRDNAKNTVYLQMNSLKPEDTAVYYCAAAHSNRGVRKWEPLYFWGQRTQVTVSS | low polyreactivity
26 | QVQLVESGGGLVQAGGSLRLSCAASGFTFGTYAMGWYRQAPGKERELVARISRRSGSTYYADSVKGRFTISRDKAKNTVYLQMNSLKPEDTAVYYCAADSRAKRYYWGQGTQVTVSS | high polyreactivity
27 | QVQLVESGGGLVQAGGSLRLSCAASGSTFGVYAMGWYRQAPGKERELVAAISKRGGSTYYADSVKGRFTISRDNAKNTVYLQMNSLKPEDTAVYYCAAGARGLYDYWGQGTQVTVSS | high polyreactivity
28 | QVQLVDSGGGLVQAGGSLRLSCAASGITFYYYAMGWYRQAPGKERELVAAISSRGGSTYYADSVKGRFRISRDNAKNTVYLQMNSLNPEDTAVYYCAAGRVGAWTFDYWGEGTQVTVSS | high polyreactivity
29 | QVQLVESGGGLVQAGGSLRLSCVASGRTFATYTLGWYRPAPGKERELVAAITTSGGTYYADSVKGRFTISRDNAKNTVYLQMNSLKPEDTAVYYCANVSYYTSAPWYYYWGQGTQVTVSS | high polyreactivity
30 | QVQLVESVGGLVQAGGSLRLSCAASGFIFSWYAMGWYRQAPGKERELVAAINSGGRTSYADSVKGRFTISRDNAKNTVYLQMNSLKPEDTAVYYCAAPVYYYNRARYSYDYWGQGTQVTVSS | high polyreactivity
31 | QVQLVESGGGLVQAGGSLRLSCAASGFTFRRNAMGWYLQAPGKERELVARISSGGSTNYADSVKGRFTISRDNAKNTVYLQMNSLKPEDSAVYYCATGKGPYPYRQRYGYWGQGTKVTVSS | high polyreactivity
32 | QVQLAESGGGLVQAGGSLRLSCAASGIIFYFYAMGWYRQAPGKERELVAAISGTGGRTYYADSVKGRFTISRDNAKNTVYLQMNSLKPEDTAVYYCNADDTPVPSIRFDYWGQGTQVTVSS | low polyreactivity
33 | QVQLVESGGGYVQAGGSLRLSCAASGRTFLGYDMGWYRQAPGKERELVAAISSSGGSTYYADSVKGRFTISRDNAKNTVYLEMNSLKPEDTAVYYCAKRNRATGASGHRFGYWGQGTHVTVSS | high polyreactivity
34 | QVQLVESVGGLVQAGGSLRLSCAASGSTFLRYAMGWYRQAPGKERELVAAITASGGSTYYADSVKGRFTISRDNAKKSVYLQMNSLKPEDTAVYYCAADGRYIGKNSHDLWIYGYYYWGQGTQVTVSS | low polyreactivity
35 | QVQLVESGGGLVQAGGSLRLSCAASGLIFDRYPMGWYRQAPGKERELVAAINRSGGTTYYADSVKGRFTISRDNAKNTVYLQMNSLKPEDTAVYYCAARWQRYRSGTGDYWGQGTQVTVSS | high polyreactivity
36 | QVQLVESGVGLVQAGGSLRLSCAASGRTFFGYAMGWYRQAPGKEREFVASISKRGGRTYYADSVKGRFTISRDNAKNSVYLQMNSLKPEDTAVYYCNAYESYPDPLTMEYWGQGTQVTVSS | high polyreactivity
37 | QVQLVESGGGLVQAGGSLRLSCAASGSIFVLNAMGWYRQAPGKERELGAAITNVGSTYYADSVKGRFTISRDNAKNTVYLQMNSLKPEDTAVYYCNAVLAPGGYDYWGQGTQVTVSS | low polyreactivity
38 | QVQLVESAGRLVQAGGSLRLSCAASGSTFYSYAMGWYRQAPGKEREFVAAITYSDGITYYADSVKGRFTISRDNAKNTVYLQMNSLKPEDTAVYYCAKAPIWGVTRKFDYWGQGNQVTVSS | high polyreactivity
39 | QVQLVESGGGLVQAGGSLRLSCAASGSTFRIYTMGWYRQAPGKERELVAGISSSGNTNYADSVKGRFTISRDNAKNTVYLQMNSLKPEDTAVYYCNAASLKFTSPVRFGYWGQGTQVTVSS | high polyreactivity
40 | QVQLVESGGGLVQAGGRLPLSCAASGSTYSVNAMGWYRQAPGKERELVAAITRSGGSTYYADSVKGRFTISRDNAKNTVYLQMNSLNPEDTAVYYCAAEIYPLGEYWGQGTQVTVSS | low polyreactivity
41 | QVQLVESGGGLVQAGGSLRLSCAASGRNFYVYGLGWYRQAPGKERELVASITYRGGSTSYADSVKGRFTISRDNAKNTVYLQMNSLKPEDTAVYYCNADTYYRYDYWGQGTQVTVSS | high polyreactivity
42 | QVQLVESGGGLVQAGGSLRLSCAASGSTFIYYAMVWYRQAPGKERELVASLSRSGGSTYYADSVKGRFTISRDNAKNTVYLQMNSLKPEDTAVYYCARAYRSSFNYWGQGTQVTVSS | high polyreactivity
43 | QVQLVESGGGIVQAGGSLRLSCAASGRIFGFYAMVWYRQAPGNERELVAAITINTGSTSYADSVKGRFTSSRDNAKNTDSLPMNSLKPEDTAVYYCATDAAAPKYDYWGQGPQVTVSS | low polyreactivity
